Among the data in article doi:10.1101/2021.09.27.462041 are Kd and koff values, retold here.

Broadly, the Kd is the equilibrium constant for the complex coming apart. The low end stands for a tighter complex, the high end for a looser complex. As usually defined, the koff is the first-order rate constant of dissociation.

What all share (test): SPR
(Surface plasmon resonance follows binding to a sensor surface in real time, without labels.)

Assay [1] deals with H3K27me3 11-mer histone H3 tail peptide.
Assay [2] addresses H3K9me3 11-mer histone H3 tail peptide.
Assay [3] addresses H3K36me3 11-mer histone H3 tail peptide.
The target of assay [4] is H3K4me3 11-mer histone H3 tail peptide.

B1: DIDO3 PHD domain (domain or fragment)
chain: PNALYCICRQPHNNRFMICCDRCEEWFHGDCVGISEARGRLLERNGEDYICPNCTILQVQ
On to B1, for which the Kd is 26.5 nM in assay [1], 22.2 nM in assay [2], 32.1 nM in assay [3] and 25.5 nM in assay [4]. Besides, the dissociation rate constant (koff) in assay [3] turned out to be 0.0024 s⁻¹; in assay [4], 0.00238 s⁻¹.
